Measured values published in publication PMC314469, “Protein Interaction Networks by Proteome Peptide Scanning” (PLoS Biology, 2004).

T1: Yfr024 SH3 (LSB3_YEAST), P43603
T1 chain: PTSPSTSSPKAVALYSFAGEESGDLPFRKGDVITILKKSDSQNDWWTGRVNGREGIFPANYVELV

T2: Boi1 SH3 (BOI1_YEAST), P38041
T2 chain: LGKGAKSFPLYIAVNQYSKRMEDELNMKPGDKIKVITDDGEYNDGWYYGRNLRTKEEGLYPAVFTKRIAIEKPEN

T3: Yhr016c SH3 (YSC84_YEAST), P32793
T3 chain: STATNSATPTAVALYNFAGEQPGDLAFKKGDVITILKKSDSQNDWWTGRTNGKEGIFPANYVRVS

T4: Rvs167 SH3 (RV167_YEAST), P39743
T4 chain: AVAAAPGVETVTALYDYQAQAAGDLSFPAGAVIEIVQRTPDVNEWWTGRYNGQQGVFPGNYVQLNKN

T5: Myo5 SH3 (MYO5_YEAST), Q04439
T5 chain: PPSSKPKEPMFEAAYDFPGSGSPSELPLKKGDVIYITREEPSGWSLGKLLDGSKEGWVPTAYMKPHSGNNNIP

T6: Boi2 SH3 (BOI2_YEAST), P39969
T6 chain: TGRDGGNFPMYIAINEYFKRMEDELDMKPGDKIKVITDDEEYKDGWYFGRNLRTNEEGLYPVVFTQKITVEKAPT


Molecular target: Sho1 SH3 (SHO1_YEAST), P40073
Test: SPOT array

Sequence of Sho1 SH3 (SHO1_YEAST), P40073 (P40073 295-366): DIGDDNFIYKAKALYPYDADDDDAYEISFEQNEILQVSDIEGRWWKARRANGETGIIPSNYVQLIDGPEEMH

Binder | normalised SPOT signal, Boehringer light units (BLU); mean over the file's lines of this peptide
QPPDRNLPSHPSSN [YGR143W 154-167] | 78.5
QRLDRDKPHEPNGY [YDL076C 274-287] | 37.3
QIVNKPLPPLPVAG [YJL128C 89-102] | 60100
QELPRAIPVMPFVD [YJL020C 471-484] | 11.6
QLQEKLSPDLPDEE [YGL173C 401-414] | 27.1
QATGRRGPAPPPPP [YOR181W 378-391] | 63.2
QNGLRFNPDVPKLW [YDR449C 169-182] | 37.6
QHKPKVKPSKPEAK [YHL007C 236-249] | 88.9
QFALKNTPITPGSS [YGR061C 462-475] | 36.4
QSKTKPLPVEPASP [YCR030C 484-497] | 9780
QGSNKYSPSSPLTT [YDR122W 964-977] | 44.3
QLINRFMPHFPSSP [YHR036W 42-55] | 323
QSEEKEKPKGPMAV [YIL122W 8-21] | 36.1
QSINRSIPSAPYGA [YBL081W 84-97] | 44.4

Molecular target: T1, Yfr024 SH3 (LSB3_YEAST), P43603
Test: SPOT array

Binder | normalised SPOT signal, Boehringer light units (BLU); mean over the file's lines of this peptide
QPPDRNLPSHPSSN [YGR143W 154-167] | 48.8
QRLDRDKPHEPNGY [YDL076C 274-287] | 105
QIVNKPLPPLPVAG [YJL128C 89-102] | 1720
QELPRAIPVMPFVD [YJL020C 471-484] | 700
QLQEKLSPDLPDEE [YGL173C 401-414] | 11.2
QATGRRGPAPPPPP [YOR181W 378-391] | 49.6
QNGLRFNPDVPKLW [YDR449C 169-182] | 86.7
QHKPKVKPSKPEAK [YHL007C 236-249] | 12.8
QFALKNTPITPGSS [YGR061C 462-475] | 66.9
QSKTKPLPVEPASP [YCR030C 484-497] | 64.3
QGSNKYSPSSPLTT [YDR122W 964-977] | 74.9
QLINRFMPHFPSSP [YHR036W 42-55] | 2780
QSEEKEKPKGPMAV [YIL122W 8-21] | 109
QSINRSIPSAPYGA [YBL081W 84-97] | 178

Molecular target: T2, Boi1 SH3 (BOI1_YEAST), P38041
Test: SPOT array

Binder | normalised SPOT signal, Boehringer light units (BLU); mean over the file's lines of this peptide
QPPDRNLPSHPSSN [YGR143W 154-167] | 19.4
QRLDRDKPHEPNGY [YDL076C 274-287] | 104
QIVNKPLPPLPVAG [YJL128C 89-102] | 56.1
QELPRAIPVMPFVD [YJL020C 471-484] | -0
QLQEKLSPDLPDEE [YGL173C 401-414] | 49.4
QATGRRGPAPPPPP [YOR181W 378-391] | 102
QNGLRFNPDVPKLW [YDR449C 169-182] | 64.6
QHKPKVKPSKPEAK [YHL007C 236-249] | 2560
QFALKNTPITPGSS [YGR061C 462-475] | 142
QSKTKPLPVEPASP [YCR030C 484-497] | 80.3
QGSNKYSPSSPLTT [YDR122W 964-977] | 34.7
QLINRFMPHFPSSP [YHR036W 42-55] | 273
QSEEKEKPKGPMAV [YIL122W 8-21] | 88.1
QSINRSIPSAPYGA [YBL081W 84-97] | 37.4

Molecular target: T3, Yhr016c SH3 (YSC84_YEAST), P32793
Test: SPOT array

Binder | normalised SPOT signal, Boehringer light units (BLU); mean over the file's lines of this peptide
QPPDRNLPSHPSSN [YGR143W 154-167] | 19.4
QRLDRDKPHEPNGY [YDL076C 274-287] | 19.3
QIVNKPLPPLPVAG [YJL128C 89-102] | 28.6
QELPRAIPVMPFVD [YJL020C 471-484] | 118
QLQEKLSPDLPDEE [YGL173C 401-414] | 16.4
QATGRRGPAPPPPP [YOR181W 378-391] | 37.1
QNGLRFNPDVPKLW [YDR449C 169-182] | 8.3
QHKPKVKPSKPEAK [YHL007C 236-249] | 9.7
QFALKNTPITPGSS [YGR061C 462-475] | 33.6
QSKTKPLPVEPASP [YCR030C 484-497] | 65.4
QGSNKYSPSSPLTT [YDR122W 964-977] | 146
QLINRFMPHFPSSP [YHR036W 42-55] | 316
QSEEKEKPKGPMAV [YIL122W 8-21] | 18.1
QSINRSIPSAPYGA [YBL081W 84-97] | 42.2

Molecular target: T4, Rvs167 SH3 (RV167_YEAST), P39743
Test: SPOT array

Binder | normalised SPOT signal, Boehringer light units (BLU); mean over the file's lines of this peptide
QPPDRNLPSHPSSN [YGR143W 154-167] | 48.2
QRLDRDKPHEPNGY [YDL076C 274-287] | 52
QIVNKPLPPLPVAG [YJL128C 89-102] | 41.5
QELPRAIPVMPFVD [YJL020C 471-484] | 57
QLQEKLSPDLPDEE [YGL173C 401-414] | 59.4
QATGRRGPAPPPPP [YOR181W 378-391] | 30.1
QNGLRFNPDVPKLW [YDR449C 169-182] | 22.1
QHKPKVKPSKPEAK [YHL007C 236-249] | 70.6
QFALKNTPITPGSS [YGR061C 462-475] | 79.8
QSKTKPLPVEPASP [YCR030C 484-497] | 90.1
QGSNKYSPSSPLTT [YDR122W 964-977] | 37.5
QLINRFMPHFPSSP [YHR036W 42-55] | 716
QSEEKEKPKGPMAV [YIL122W 8-21] | 20.6
QSINRSIPSAPYGA [YBL081W 84-97] | 89

Molecular target: T5, Myo5 SH3 (MYO5_YEAST), Q04439
Test: SPOT array

Binder | normalised SPOT signal, Boehringer light units (BLU); mean over the file's lines of this peptide
QPPDRNLPSHPSSN [YGR143W 154-167] | 156
QRLDRDKPHEPNGY [YDL076C 274-287] | 218
QIVNKPLPPLPVAG [YJL128C 89-102] | 249
QELPRAIPVMPFVD [YJL020C 471-484] | 118
QLQEKLSPDLPDEE [YGL173C 401-414] | 216
QATGRRGPAPPPPP [YOR181W 378-391] | 607
QNGLRFNPDVPKLW [YDR449C 169-182] | 260
QHKPKVKPSKPEAK [YHL007C 236-249] | 956
QFALKNTPITPGSS [YGR061C 462-475] | 111
QSKTKPLPVEPASP [YCR030C 484-497] | 122
QGSNKYSPSSPLTT [YDR122W 964-977] | 171
QLINRFMPHFPSSP [YHR036W 42-55] | 518
QSEEKEKPKGPMAV [YIL122W 8-21] | 197
QSINRSIPSAPYGA [YBL081W 84-97] | 208

Molecular target: T6, Boi2 SH3 (BOI2_YEAST), P39969
Test: SPOT array

Binder | normalised SPOT signal, Boehringer light units (BLU); mean over the file's lines of this peptide
QPPDRNLPSHPSSN [YGR143W 154-167] | 13.7
QRLDRDKPHEPNGY [YDL076C 274-287] | 12
QIVNKPLPPLPVAG [YJL128C 89-102] | 13.7
QELPRAIPVMPFVD [YJL020C 471-484] | 22.2
QLQEKLSPDLPDEE [YGL173C 401-414] | 27.9
QATGRRGPAPPPPP [YOR181W 378-391] | 11.1
QNGLRFNPDVPKLW [YDR449C 169-182] | 0
QHKPKVKPSKPEAK [YHL007C 236-249] | 40.3
QFALKNTPITPGSS [YGR061C 462-475] | 0
QSKTKPLPVEPASP [YCR030C 484-497] | 5.9
QGSNKYSPSSPLTT [YDR122W 964-977] | 31.3
QLINRFMPHFPSSP [YHR036W 42-55] | 325
QSEEKEKPKGPMAV [YIL122W 8-21] | 16.6
QSINRSIPSAPYGA [YBL081W 84-97] | 122
